Target: c-Jun N-terminal Kinase (JNK)
Test: cell-based or functional assay

L-JNKi1 (peptide) gave a phosphorylation of STX1a (S14) in synaptosomes, L-JNKi1 on its own of -45%.
